One may read the Kd as the constant that tells how readily two partners part at equilibrium. Usually koff stands for the rate constant with which the complex falls apart. What is called kon is a measure of how fast the partners come together.

Changes are numbered by the printed parent chain.

The values that follow come from patent US20140271457A1 (AbbVie / Abbott, published 2014).

Sequences and labels used below:
B1: DVD2692 (bispecific antibody, human IgG1, kappa)
heavy: not shown
light: DIQMTQSPSSLSASVGDRVTISCRASQDIRNYLNWYQQKPGKAPKLLIFYTSKLHSGVPSRFSGSGSGTDYTLTISSLQPEDIATYYCQQGLTPPLTFGGGTKVEIKRTVAAPDIQMTQSPSSLSASVGDRVTITCRASQLVSSAVAWYQQKPGKAPKLLIYWASARHTGVPSRFSGSGSGTDFTLTISSLQPEDFATYYCQQHYKTPFTFGQGTKLEIKRTVAAPSVFIFPPSDEQLKSGTASVVCLLNNFYPREAKVQWKVDNALQSGNSQESVTEQDSKDSTYSLSSTLTLSKADYEKHKVYACEVTHQGLSSPVTKSFNRGEC
B2: DVD2742 (bispecific antibody, human IgG1, kappa)
heavy: not shown
light: B1 light with R137K, A166T, R167L, K206R
B3: DVD2739 (bispecific antibody, human IgG1, kappa)
heavy: not shown
light: B1 light with R137K, A166T, R167L, K206R
B4: DVD2691 (bispecific antibody, human IgG1, kappa)
heavy: not shown
light: DIQMTQSPSSLSASVGDRVTISCRASQDIRNYLNWYQQKPGKAPKLLIFYTSKLHSGVPSRFSGSGSGTDYTLTISSLQPEDIATYYCQQGLTPPLTFGGGTKVEIKRTVAAPSVFIFPPDIQMTQSPSSLSASVGDRVTITCRASQLVSSAVAWYQQKPGKAPKLLIYWASARHTGVPSRFSGSGSGTDFTLTISSLQPEDFATYYCQQHYKTPFTFGQGTKLEIKRTVAAPSVFIFPPSDEQLKSGTASVVCLLNNFYPREAKVQWKVDNALQSGNSQESVTEQDSKDSTYSLSSTLTLSKADYEKHKVYACEVTHQGLSSPVTKSFNRGEC
B5: DVD2741 (bispecific antibody, human IgG1, kappa)
heavy: not shown
light: B4 light with R144K, A173T, R174L, K213R
B6: AB398 (antibody, V domains shown)
VH: EVQLVQSGAEVKKPGASVKVSCKASGYTFTTYGVSWVRQAPGQGLEWMGEIYPGNYNTYYNEKFRGRVTMTTDTSTSTAYMELRSLRSDDTAVYYCARWRTSYFSDYGYFDYWGQGTTVTVSS
VL: DVVMTQSPLSLPVTLGQPASISCRSSQSLVHSHGNTYLHWYQQRPGQSPRLLIYTVSNRFSGVPDRFSGSGSGTDFTLKISRVEAEDVGVYYCSQSTHVPYTFGGGTKVEIKR
B7: AB397 (antibody, V domains shown)
VH: EVTLRESGPGLVKPTQTLTLTCTLYGFSLSTSDMGVDWIRQPPGKGLEWLAHIWWDDVKRYNPALKSRLTISKDTSKNQVVLKLTSVDPVDTATYYCARTVSSGYIYYAMDYWGQGTLVTVSS
VL: DIQMTQSPSSLSASVGDRVTISCRASQDIRNYLNWYQQKPGKAPKLLIFYTSKLHSGVPSRFSGSGSGTDYTLTISSLQPEDIATYYCQQGLTPPLTFGGGTKVEIKR
B8: DVD2738 (bispecific antibody, human IgG1, kappa)
heavy: not shown
light: DIQMTQSPSSLSASVGDRVTISCRASQDIRNYLNWYQQKPGKAPKLLIFYTSKLHSGVPSRFSGSGSGTDYTLTISSLQPEDIATYYCQQGLTPPLTFGGGTKVEIKRGGSGGGGSGDIQMTQSPSSLSASVGDRVTITCKASQLVSSAVAWYQQKPGKAPKLLIYWASTLHTGVPSRFSGSGSGTDFTLTISSLQPEDFATYYCQQHYRTPFTFGQGTKLEIKRTVAAPSVFIFPPSDEQLKSGTASVVCLLNNFYPREAKVQWKVDNALQSGNSQESVTEQDSKDSTYSLSSTLTLSKADYEKHKVYACEVTHQGLSSPVTKSFNRGEC
B9: DVD3158 (bispecific antibody, IgG1)
VH: EVQLVQSGAEVKKPGASVKVSCKASGYTFTSYWMHWVRQAPGQGLEWIGNINPKGGSNIYNEKFQGRVTMTRDTSISTAYMELSRLRSDDTAVYYCARLDYFGDSFDLWGQGTTVTVSSGGGGSGGGGSEVQLVESGGGLVQPGGSLRLSCAASGFTFSNYGVEWVRQAPGKGLEWVSGIWADGSTHYADTVKSRFTISRDNSKNTLYLQMNSLRAEDTAVYYCAREWQHGPVAYWGQGTLVTVSS
VL: DIQMTQSPSSLSASVGDRVTITCRASQGIRNYLNWYQQKPGKAPKLLIYYASNLEVGVPSRFSGSGSGTDYTLTISSLQPEDFATYYCQQDNRFPYTFGGGTKVEIKRGGSGGGGSGDIQMTQSPSSLSASVGDRVTITCKASQLVSSAVAWYQQKPGKAPKLLIYWASTLHTGVPSRFSGSGSGTDFTLTISSLQPEDFATYYCQQHYRTPFTFGQGTKLEIKR
notes: DVD-Ig; wt hIgG1 + kappa constants
B10: DVD3144 (bispecific antibody, IgG1)
VH: EVQLVESGGGLVQPGGSLRLSCAASGFTFSNYGVTWVRQAPGKGLEWVSMIWADGSTHYASSVKGRFTISRDNSKNTLYLQMNSLRAEDTAVYYCAREWQHGPVAYWGQGTLVTVSSASTKGPEVQLVQSGAEVKKPGASVKVSCKASGYTFTSYWMHWVRQAPGQGLEWIGNINPKGGSNIYNEKFQGRVTMTRDTSISTAYMELSRLRSDDTAVYYCARLDYFGDSFDLWGQGTTVTVSS
VL: DIQMTQSPSSLSASVGDRVTITCRASQLVSSAVAWYQQKPGKAPKLLIYWASARHTGVPSRFSGSGSGTDFTLTISSLQPEDFATYYCQQHYKTPFTFGQGTKLEIKRTVAAPDIQMTQSPSSLSASVGDRVTITCRASQGIRNYLNWYQQKPGKAPKLLIYYASNLEVGVPSRFSGSGSGTDYTLTISSLQPEDFATYYCQQDNRFPYTFGGGTKVEIKR
notes: as for B9
B11: DVD3146 (bispecific antibody, IgG1)
VH: B10 VH
VL: DIQMTQSPSSLSASVGDRVTITCRASQLVSSAVAWYQQKPGKAPKLLIYWASARHTGVPSRFSGSGSGTDFTLTISSLQPEDFATYYCQQHYKTPFTFGQGTKLEIKRTVAAPSVFIFPPDIQMTQSPSSLSASVGDRVTITCRASQGIRNYLNWYQQKPGKAPKLLIYYASNLEVGVPSRFSGSGSGTDYTLTISSLQPEDFATYYCQQDNRFPYTFGGGTKVEIKR
notes: as for B9
B12: DVD3147 (bispecific antibody, IgG1)
VH: EVQLVESGGGLVQPGGSLRLSCAASGFTFSNYGVTWVRQAPGKGLEWVSMIWADGSTHYASSVKGRFTISRDNSKNTLYLQMNSLRAEDTAVYYCAREWQHGPVAYWGQGTLVTVSSASTKGPSVFPLAPEVQLVQSGAEVKKPGASVKVSCKASGYTFTSYWMHWVRQAPGQGLEWIGNINPKGGSNIYNEKFQGRVTMTRDTSISTAYMELSRLRSDDTAVYYCARLDYFGDSFDLWGQGTTVTVSS
VL: B10 VL
notes: as for B9
B13: DVD3156 (bispecific antibody, IgG1)
VH: B10 VH with T35E, M50G, S61D, S62T, G65S
VL: B11 VL with R24K, A53T, R54L, K93R
notes: as for B9
B14: DVD3154 (bispecific antibody, IgG1)
VH: B10 VH with T35E, M50G, S61D, S62T, G65S
VL: B10 VL with R24K, A53T, R54L, K93R
notes: as for B9
B15: DVD3157 (bispecific antibody, IgG1)
VH: B12 VH with T35E, M50G, S61D, S62T, G65S
VL: B10 VL with R24K, A53T, R54L, K93R
notes: as for B9
B16: DVD3159 (bispecific antibody, IgG1)
VH: EVQLVQSGAEVKKPGASVKVSCKASGYTFTSYWMHWVRQAPGQGLEWIGNINPKGGSNIYNEKFQGRVTMTRDTSISTAYMELSRLRSDDTAVYYCARLDYFGDSFDLWGQGTTVTVSSASTKGPEVQLVESGGGLVQPGGSLRLSCAASGFTFSNYGVEWVRQAPGKGLEWVSGIWADGSTHYADTVKSRFTISRDNSKNTLYLQMNSLRAEDTAVYYCAREWQHGPVAYWGQGTLVTVSS
VL: DIQMTQSPSSLSASVGDRVTITCRASQGIRNYLNWYQQKPGKAPKLLIYYASNLEVGVPSRFSGSGSGTDYTLTISSLQPEDFATYYCQQDNRFPYTFGGGTKVEIKRTVAAPDIQMTQSPSSLSASVGDRVTITCKASQLVSSAVAWYQQKPGKAPKLLIYWASTLHTGVPSRFSGSGSGTDFTLTISSLQPEDFATYYCQQHYRTPFTFGQGTKLEIKR
notes: as for B9

One test concerns the target Recombinant Human IL-13 (human, UniProt P35225 35-146, limits assumed). The experiment in a line: cell-based or functional assay.
Target sequence in this assay (P35225 35-146 limits assumed): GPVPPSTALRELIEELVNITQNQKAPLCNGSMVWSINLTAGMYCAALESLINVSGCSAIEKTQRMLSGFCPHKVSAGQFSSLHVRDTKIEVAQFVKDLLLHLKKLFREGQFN
As for B1, the “IL-13 Neutralization Assay IC50” value stood at 0.131 nM.
Still for that read-out and setting: under B2 stands 0.064 nM.
The same measure, in the same setting: under B3 stands 0.132 nM.
For the molecule B4, the “IL-13 Neutralization Assay IC50” value was 0.105 nM.
On the same count and under the same terms, under B5 stands 0.118 nM; under B6, 0.068 nM.
Still for that read-out and setting: under B7 stands 0.066 nM.
As for B8, the “IL-13 Neutralization Assay IC50” value came out at 0.149 nM.

Another test shares this target. Kind of test: Biacore SPR. A digest of the protocol: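 Kinetic constants come from global 1:1 model fitting (Rmax local) at 0.8–100 nM antigen. Flow was 50 μl/min with 5 min association and 10 min dissociation. Capture used goat anti-mouse IgG Fcγ on a CM5 chip in HBS-EP+ at 25 °C.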
(Surface plasmon resonance follows binding to a sensor surface in real time, without labels.)
Target sequence in this assay (P35225 35-146 limits assumed): as above
For B9, the equilibrium dissociation constant (Kd) is 0.057 nM, the koff was 6.7e-05 s⁻¹ and the kon stood at 1.2e+06 M⁻¹ s⁻¹.
B10: the Kd was determined as 0.12 nM, the off-rate constant (koff) worked out at 7.3e-06 s⁻¹ and the association rate constant (kon) was found to be 62000 M⁻¹ s⁻¹.
On to B11, for which the Kd was found to be 0.24 nM, the koff was 4.6e-05 s⁻¹ and the kon was 190000 M⁻¹ s⁻¹.
For B12, in that order: less than 0.0077 nM, less than 1e-06 s⁻¹ and 130000 M⁻¹ s⁻¹.
Turning to B13, the Kd was 0.34 nM, the koff worked out at 5.4e-05 s⁻¹ and the on-rate (kon) came out at 160000 M⁻¹ s⁻¹.
With B14, the Kd came to 0.58 nM, the koff came to 3e-05 s⁻¹ and the kon stood at 53000 M⁻¹ s⁻¹.
In the case of B15, the dissociation constant Kd was 0.0095 nM, the dissociation rate constant (koff) was 1.1e-06 s⁻¹ and the kon is 110000 M⁻¹ s⁻¹.
In the case of B16, the Kd amounted to 0.039 nM, the dissociation rate constant (koff) was 5.4e-05 s⁻¹ and the kon stood at 1.4e+06 M⁻¹ s⁻¹.
